Results as given in publication PMC11206678, “Peptide-Alkoxyamine Drugs: An Innovative Approach to Fight Schistosomiasis: “Digging Their Graves with Their Forks”” (Pathogens, 2024).

Legend:
Vero cells = format: cell-based; conditions: 48 h
Procedure: A non-cancer line of Vero cells was used to determine the cytotoxicity of the compound against mammalian cells. They were evaluated at a final DMSO concentration of 0.5%. The culture medium was MEM (Dutscher, Bernolsheim, France) supplemented with 10% fetal bovine serum (Fisher Scientific, Illkirch, France), 1X non-essential amino acids (Fisher Scientific, Illkirch, France), 100 U/mL, 100 µg/mL penicillin/streptomycin (Fisher Scientific, Illkirch, France), and 2 mM L-glutamine (Fisher Scientific, Illkirch, France) at 37 °C in a humidified 5% CO2 atmosphere. Vero cells (100 µL of 10^5 cells/mL per well) were plated in 96-well plates for 24 h then treated with 100 µL of compound dilutions (in duplicate) during 48 h. All molecules were tested from 5 nM to 50 µM. Each well was then examined under the microscope to detect any precipitate formation before the supernatant was removed by flicking the plate. A volume of 100 µL of 0.5 mg/mL in MEM from a stock solution at 5 mg/mL of PBS-dissolved MTT (3-(4,5-dimethylthiazol-2-yl)-2,5-diphenyltetrazolium bromide, Sigma Aldrich/Merck, Darmstadt, Germany) was then added to each well [20].
After incubation for 1 h at 37 °C and 5% CO2 the supernatant was removed and 100 µL of DMSO were added. Plates were gently shaken to dissolve formazan crystals resulting from the MTT reduction by living cells and read at 570 nm with the VICTOR Nivo plate reader (Perkin Elmer, Waltham, MA, USA). CC50 values were determined using GraphPad Prism 7 software (San Diego, CA, USA).

[1] = tested on: Schistosoma mansoni adult worms; assay: Viability of Schistosoma mansoni adult worms in vitro; format: cell-based, Schistosoma mansoni NMRI strain; conditions: 37 °C
Procedure: Experiments on the viability of Schistosoma mansoni adult worms. In vitro tests were performed on Schistosoma mansoni NMRI strains. This parasite is lab maintained on Biomphalaria glabrata (BRE strain) as intermediate mollusc host and Golden Hamster (Janvier Labs, Le Genest-Saint-Isle, France) as definitive vertebrate host. Methods, for molluscs’ and hamsters’ infection and for parasite recovery, were previously described. Adult worms were recovered by hepatic perfusion technique between 42 and 47 days post hamster exposition to parasite larvae. Worms were carefully collected and disposed in 12-well Falcon® plate containing 2 mL of RPMI 1640 (supplemented with L-glutamine and Hepes 25 mM). The plates containing a minimum of 15 worms by well were then placed in an incubator chamber at 37 °C and 5% CO2. The worms sex ratio was almost balanced in each well. The drug was first dissolved in DMSO (Sigma-Aldrich) to give a 100 mg/mL mother solution. Then the stock solution was complemented with Tween 80 and RPMI to obtain the following final ratio dilution: RPMI 1640/Tween 80/DMSO and 1000/0.95/3.8, v/v/v.
All molecules were tested at a final concentration of 100 µg/mL and 10 µg/mL. A negative control consisted in adding the same RPMI 1640/Tween 80/DMSO solution, but without any drug and a positive control consisted in adding praziquantel. All molecules and control were performed in duplicates of well. The worm viability was checked after 1, 2, 3, 4, 5, 6, 7, 8, 24, 48, and 72 h after adding the molecule.

[2] = Homolysis kinetics of alkoxyamines by EPR (growth of nitroxide); format: physicochemical; conditions: mixture of diastereoisomers; for Homolysis rate constant kd: 0.1 mM alkoxyamine, O2 as alkyl radical scavenger; for Activation energy Ea: by Equation (2) from kd and T, A = 2.4 10^14 s^−1
Procedure: Preparation of alkoxyamines and reference samples. All reagents including anhydrous solvents used for the chemical synthesis were purchased from commercially available sources such as Merck, TCI, and Fluorochem, and were used without further purification. All air and/or water-sensitive reactions were carried out under an argon atmosphere with dry solvents using standard syringe-cannula/septa techniques. Routine monitoring of reactions was performed using Merck Silica gel 60 F254, aluminum-supported TLC plates; spots were visualized using UV light and ethanolic acidic para-anisaldehyde solution or ethanolic phosphomolybdic solution, followed by heating. Purifications by means of column chromatography were performed with Silica gel 60 (230–400 mesh). ^1H, ^13C, and ^19F NMR spectra were obtained in CDCl3, MeOD (with residual H2O), D2O, DMSO-d6, or C6D6 solutions on by using Bruker AC400 (400 MHz) and Bruker AC300 (300 MHz) spectrometers. High-resolution mass spectra (HRMS) have been performed using a SYNAPT G2 HDMS (Waters) mass spectrometer equipped with a pneumatically assisted atmospheric pressure ionization (API) source. The sample was ionized in positive electrospray mode under the following conditions: electrospray voltage: 2.8 kV; port voltage: 20 V; Nebulizing gas flow rate (nitrogen): 100 L/h or in negative electrospray mode under the following conditions: electrospray voltage: −2.27 kV; port voltage: −20 V; Nebulizing gas flow rate (nitrogen): 100 L/h. The mass spectra (MS) were obtained with a time-of-flight (TOF) analyzer. The exact mass measurements were carried out in triplicate with external calibration. Homolysis constants were measured by EPR on an EMX Bruker spectrometer from 10^−4 M samples in tertbutyl benzene or in a mixture of H2O-nPrOH (1:1; v:v).
Kinetic experiments. Kinetics of A1–A7 (Scheme 2) for series L and D are performed by monitoring the growth of nitroxide by Electron Paramagnetic Resonance (X-band EMX Bruker machine) in tert-butylbenzene and a water/n-PrOH (for a good solubility of the alkoxyamine) as solvents and using O2 as alkyl radical scavenger to suppress the back reaction (kc in Scheme 2) as already reported. Homolysis rate constants kd are given by Equation (1) ([nitroxide]∞ = [alkoxyamine]0 = 0.1 mM, see Table S1) and the subsequent activation energies Ea given by Equation (2). (1) lnnitroxide∞−nitroxidet/nitroxide∞=−kd·t, (2) Ea=−RTlnkd/A.

[3] = Table S1, dose at 100 μg/ml, unit not given in Table S1 (h in Table 2)

Structure (SMILES): CC(ON1C(C)(C)CCCC1(C)C)c1ccc(NC(=O)[C@@H](Cc2ccccc2)NC(=O)[C@H](NC(=O)[C@H](N)Cc2ccccc2)C(C)C)cc1 (stereo partly drawn) [A5D, (2R)-2-((R)-2-amino-3-phenylpropanamido)-3-methyl-N-((2R)-1-oxo-3-phenyl-1-((4-(1-((2,2,6,6-tetramethylpiperidin-1-yl)oxy)ethyl)phenyl)amino)propan-2-yl)butanamide]
- CC50 (Vero cells): 2.2 ± 0.3 µM
- time to kill all parasites [1, 3]: 4
- time to reach the death of half of the population of worms [1, 3]: 1
- Activity/toxicity towards schistosomes (in words) ([1]; adult worms, 100 μg/mL): toxic to schistosomes
- Homolysis rate constant kd ([2]; C–ON bond homolysis in t-BuPh, EPR, T (°C): A1L 128.0, A3L 125.0, A5L 130.0, A6L 125, A7L 126.5, A1D 122.5, A3D 119.8, A5D 130): 11.6 10^−4 s^−1
- Homolysis rate constant kd ([2]; C–ON bond homolysis in water/n-PrOH v/v 1:1, EPR, T (°C): A1L 95.1, A3L 94.5, A4L 94.6, A5L 94.0, A6L 94.8, A7L 94.3, A1D 93.5, A3D 92.6, A4D 95.0, A5D 94.6): 1.3 10^−4 s^−1
- Activation energy Ea ([2]; in t-BuPh): 132.7 kJ/mol
- Activation energy Ea ([2]; in water/n-PrOH v/v 1:1): 128.5 kJ/mol
